These results are taken from PMC10977726 (PLOS ONE, 2024).

T1: biotin-Ly6E-rat IgG2b Fc (human | rat, biotin)
T1 chain: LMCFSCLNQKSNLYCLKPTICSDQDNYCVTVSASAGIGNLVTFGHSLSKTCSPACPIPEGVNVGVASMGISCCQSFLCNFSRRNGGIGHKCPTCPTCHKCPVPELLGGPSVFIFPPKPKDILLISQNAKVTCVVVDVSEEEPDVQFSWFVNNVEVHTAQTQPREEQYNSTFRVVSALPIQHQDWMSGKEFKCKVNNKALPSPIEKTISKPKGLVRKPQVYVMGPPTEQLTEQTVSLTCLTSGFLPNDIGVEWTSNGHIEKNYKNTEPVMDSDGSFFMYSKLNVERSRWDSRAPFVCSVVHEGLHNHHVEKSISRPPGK

Some results are limits rather than exact numbers.

T3 sequence (P01127 82-190): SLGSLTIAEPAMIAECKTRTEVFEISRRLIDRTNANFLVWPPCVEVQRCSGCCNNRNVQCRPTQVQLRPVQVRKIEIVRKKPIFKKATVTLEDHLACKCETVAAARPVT

For the first test, the target named is T2, human IgG Fc (Biotin-SP-ChromPure Human IgG, Fc fragment) (human, biotin (Biotin-SP)). In words: SPR. To be noted: both partners purified.
As to GECKGKGAKCSSISIHDAHCCTGSCRSGKC (designed binder) [recombinant Ig-CON-5 after TEV protease digestion], the Kd was 10 nM.

For another test, the target named is T2, human IgG Fc (Biotin-SP-ChromPure Human …). In words: ELISA; […], room temperature; […]. To be noted: both partners purified.
Turning to VGECVRGRCSSISCCSQFGYCGKGPKYCG (designed binder) [Ig-AMP-4], the IC50 was 151 nM. With VGECVRGRCSKISCCSQFGYCGKGPKYCG (designed binder) [Ig-AMP-1], the IC50 is 55 nM.

As to GCQAHYWYRVWFCKQDSDCLAGCVCGPNGFCG (designed binder) [Ig-EET-1], the IC50 was determined as 447 nM.

For VGECVRGRCSQISCCSQFGYCGKGPKYCG (designed binder) [Ig-AMP-3], the concentration for half-maximal inhibition (IC50) came to 62 nM. VGECVRGRCSAISCCSQFGYCGKGPKYCG (designed binder) [Ig-AMP-2] yielded an IC50 of 41 nM. GCGYWYMQWFCKQDSDCLAGCVCRPKPECG (designed binder) [Ig-EET-4]: the 50% inhibitory concentration (IC50) is 823 nM.

For the next test the target is unchanged. In words: SPR; […]; Biacore S200, […] (PBS with 0.05% Tween 20, pH 7.4); […]. To be noted: both partners purified. A general note: SPR reads the build-up and loss of mass on a sensor chip optically.
Molecule VGECVRGRCSSISCCSQFGYCGKGPKYCG (designed binder) [Ig-AMP-4] displayed a dissociation constant (Kd) of over 1000 nM. For the molecule VGECVRGRCSKISCCSQFGYCGKGPKYCG (designed binder) [Ig-AMP-1], the dissociation constant Kd was determined as 243 nM.

Take GCQAHYWYRVWFCKQDSDCLAGCVCGPNGFCG (designed binder) [Ig-EET-1]: the affinity, expressed as Kd, was 228 nM.

For VGECVRGRCSQISCCSQFGYCGKGPKYCG (designed binder) [Ig-AMP-3], binding was put at a Kd of 353 nM. Molecule CKGKGAKCSRLMYDCCTGSCRSGKC [WT CON] registered an equilibrium dissociation constant (Kd) of over 20000 nM.

On to GCGYWYMQWFCKQDSDCLAGCVCRPKPECG (designed binder) [Ig-EET-4], for which the Kd worked out at 948 nM.

Another test concerns the target T3, biotin-PDGF-bb (human, UniProt P01127 82-190, biotin).
T3 construct: also called human platelet-derived growth factor
The description is as above. To be noted: both partners purified.
Consider GCAFEGESCNVQFYPCCVSMKLMCIPGNPDGTCYYL (designed binder) [P-AST-3], for which the Kd was over 50 µM.

In a further test the target is T1, biotin-Ly6E-rat IgG2b Fc. The description is as above. To be noted: both partners purified.
Molecule GCQIYQSQWSYLCKQDSDCLAGCVCGPNGFCG (designed binder) [L-EET-8] displayed a dissociation constant Kd of over 20 µM. GCNMYSGPWRYFCKQDSDCLAGCVCGPNGFCG (designed binder) [L-EET-5] yielded a Kd of over 20 µM. In turn, GCAIYHMGWMFQCKQDSDCLAGCVCGPNGFCG (designed binder) [L-EET-7] gave an equilibrium dissociation constant (Kd) of 0.022 µM.

Broadly, the Kd is a measure of binding affinity in units of concentration. A low value points to higher affinity. One may read the IC50 as the concentration at which inhibition is half-maximal. A lower IC50 goes with greater potency in that assay.
